This is an account of results in patent US20100047928A1 (CANON, published 2010).

The test has as its target T1, Soluble hen egg-white lysozyme proteins (HEL; Seikagaku Corp. code No. 100940) (hen, UniProt P00698 19-147).
T1 construct: Bought protein, soluble; also called HEL proteins; target substances
The test can be described thus: sandwich on gold/glass slide: immobilised fusion, 500 nM HEL, FITC-labelled anti-HEL polyclonal antibodies, fluorescence microscopy. The protocol: 200 μl of 500 nM HEL proteins is added dropwise as target substances to the neighborhood of the boundary region between the gold layer and the glass layer of the slide glass completely washed in the step (ii). The slide glass is covered with a cover glass. After reaction at room temperature for 30 minutes, the slide glass is washed with each buffer. Next, 1 ml of 100 nM FITC-labeled HEL polyclonal antibodies was spotted thereonto and incubated in a moisture chamber. Then, the slide glass is washed with each buffer. FITC fluorescence at 520 nm is observed with a fluorescence microscope.

T1 sequence (P00698 19-147): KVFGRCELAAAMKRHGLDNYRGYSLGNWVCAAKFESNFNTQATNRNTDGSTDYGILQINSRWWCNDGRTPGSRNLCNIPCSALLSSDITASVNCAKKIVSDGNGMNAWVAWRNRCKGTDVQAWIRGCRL

B1: fusion protein of HEL-binding scFv (HyHEL10), Au-binding peptide region and SiO2-binding peptide region (scFv)
scFv: DIVLTQSPATLSVTPGNSVSLSCRASQSIGNNLHWYQQKSHESPRLLIKYASQSISGIPSRFSGSGSGTDFTLSINSVETEDFGMYFCQQSNSWPYTFGGGTKLEITAGGGGSGGGGSGGGGSDIQLQESGPSLVKPSQTLSLTCSVTGDSITSDYWSWIRKFPGNRLEYMGYVSYSGSTYYNPSLKSRISITRDTSKNQYYLDLNSVTTEDTATYYCANWDGDYWGQGTLVTVSAAGGGGSGGGGSGGGGSMHGKTQATSGTIQSMHGKTQATSGTIQSMHGKTQATSGTIQSMHSASGSGGGGSGGGSGGGSEGGGSEGGGSGGGSGSIPMHVHHKHPHVIPMHVHHKHPHV
notes: Secreted from E. coli by the pelB signal of pET-20b(+); In the assays it stood immobilised on a gold/glass substrate; also called target substance capturing body; sc-Fv-HyHEL10 fusion; not shown: His tag used for metal chelate purification (pET-20b(+) vector)
For the molecule B1, the binding result is “binds”.
